# Results as given in patent US20240181006A1, “POLYPEPTIDES BINDING ADAMTS5, MMP13 AND AGGRECAN” (Merck Patent GmbH, priority 2017, published 2024).
# T1: human MMP1 (Homo sapiens, UniProt P03956)
# T1 sequence (P03956 100-469): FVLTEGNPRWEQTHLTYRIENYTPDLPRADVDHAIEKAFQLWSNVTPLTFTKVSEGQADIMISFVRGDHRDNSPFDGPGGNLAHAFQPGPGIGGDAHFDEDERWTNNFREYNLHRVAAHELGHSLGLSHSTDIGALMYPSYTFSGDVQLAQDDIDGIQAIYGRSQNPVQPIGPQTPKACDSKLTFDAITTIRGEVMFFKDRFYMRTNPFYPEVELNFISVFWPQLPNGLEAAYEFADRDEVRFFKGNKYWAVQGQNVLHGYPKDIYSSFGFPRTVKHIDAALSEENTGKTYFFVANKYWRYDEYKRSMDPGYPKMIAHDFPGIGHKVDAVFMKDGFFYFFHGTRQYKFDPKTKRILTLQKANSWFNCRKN
# Assays:
# human MMP1 [1] = target: T1, human MMP1; assay: FRET-based human MMP1 assay (selectivity of 02F03); type: biochemical; details: data not shown
# Experimental: (§1) To confirm the selectivity of ISVD 02F03 for ADAMTS5, inhibition of the enzymatic activity of MMP1, MMP14 and ADAMTS4 was evaluated via FRET-based assays and a human ADAMTS4 AlphaLISA, with the respective enzymes.
# (§2) Activated human MMP1 or MMP14 was incubated for 30 minutes at room temperature with 10 μl of dilution series of ISVD 02F03. After incubation, 20 μl of respectively 5 μM or 2.5 μM fluorogenic peptide substrate (Mca-PLGL-Dpa-AR-NH2 Fluorogenic MMP Substrate (R&D Systems cat #ES001)) was added. The ability of ISVD 02F03 to prevent MMP1- and MMP14-mediated cleavage was monitored every minute for 2 hours at 37° C. on a Tecan Infinite M1000 plate reader.
# human MMP14 [2] = target: T2, human MMP14 (Homo sapiens, UniProt P50281); assay: FRET-based human MMP14 assay (selectivity of 02F03); type: biochemical; details: data not shown
# Experimental: as §1, §2
# human MMP1 [3] = target: T1, human MMP1; assay: human MMP1 fluorogenic peptide assay (selectivity of 62C02); type: biochemical; details: data not shown
# Experimental: (§3) In brief, the setup of human, cynomolgus, rat, dog and bovine MMP13 fluorogenic peptide assays, as well as human MMP1 and MMP14 fluorogenic peptide assays is as follows. Activated MMP was incubated with fluorogenic peptide substrate Mca-PLGL-Dpa-AR-NH2 (R&D Systems #ES001) and a ⅕ dilution of periplasmic extract or a dilution series of purified Nanobody/positive control (total volume=20 μl in assay buffer 50 mM Tris pH 7.5, 100 mM NaCl, 10 mM CaCl2), 0.01% Tween20), for 2 h at 37° C. The linear increase of fluorescence (v0-between 15 and 45 min incubation) was used as a measure for the enzymatic activity and % inhibition was calculated with the formula 100-100 (v0 in the presence of test Nanobody/v0 in the presence of negative control Nanobody (Cablys)).
# (§4) In order to determine the selectivity of ISVD 62C02 for MMP13, fluorogenic peptide assays for MMP1 and MMPP14 were used. MMP1 and MMP14 are two closely related MMP family members. TIMP-2 was used as positive control in these assays. A similar set up as described in Example 1.1 was used.
# human MMP14 [4] = target: T2, human MMP14; assay: human MMP14 fluorogenic peptide assay (selectivity of 62C02); type: biochemical; details: data not shown
# Experimental: as §3, §4
# Hu G1-IGD-G2 = target: T3, Hu G1-IGD-G2 (Homo sapiens, UniProt P16112); assay: periplasmic extract ELISA, human Aggrecan G1-IGD-G2; type: binding
# T3 construct: Hu G1-IGD-G2
# Source text: (§5) After the primary screening, initial assessment of binding via ELISA, determination of off-rate and species cross-reactivity, ISVD 114F08 was subjected to further characterization.
# Cy G1-IGD-G2 = assay: periplasmic extract ELISA, cynomolgus Aggrecan G1-IGD-G2; type: binding
# Source text: as §5
# Rat G1-IGD-G2 = assay: periplasmic extract ELISA, rat Aggrecan G1-IGD-G2; type: binding
# Source text: as §5
# Dog G1-IGD-G2 = target: T4, Dog G1-IGD-G2 (Canis lupus familiaris, UniProt Q28343); assay: periplasmic extract ELISA, dog Aggrecan G1-IGD-G2; type: binding
# T4 construct: Dog G1-IGD-G2
# Source text: as §5
# Bov G1-IGD-G2 = target: T5, Bov G1-IGD-G2 (Bos taurus, UniProt P13608); assay: periplasmic extract ELISA, bovine Aggrecan G1-IGD-G2; type: binding
# T5 construct: the recombinant G1-IGD-G2 region from human, cynomolgus, rat, dog and bovine Aggrecan
# Source text: as §5
# T3 sequence (P16112 20-676 limits assumed): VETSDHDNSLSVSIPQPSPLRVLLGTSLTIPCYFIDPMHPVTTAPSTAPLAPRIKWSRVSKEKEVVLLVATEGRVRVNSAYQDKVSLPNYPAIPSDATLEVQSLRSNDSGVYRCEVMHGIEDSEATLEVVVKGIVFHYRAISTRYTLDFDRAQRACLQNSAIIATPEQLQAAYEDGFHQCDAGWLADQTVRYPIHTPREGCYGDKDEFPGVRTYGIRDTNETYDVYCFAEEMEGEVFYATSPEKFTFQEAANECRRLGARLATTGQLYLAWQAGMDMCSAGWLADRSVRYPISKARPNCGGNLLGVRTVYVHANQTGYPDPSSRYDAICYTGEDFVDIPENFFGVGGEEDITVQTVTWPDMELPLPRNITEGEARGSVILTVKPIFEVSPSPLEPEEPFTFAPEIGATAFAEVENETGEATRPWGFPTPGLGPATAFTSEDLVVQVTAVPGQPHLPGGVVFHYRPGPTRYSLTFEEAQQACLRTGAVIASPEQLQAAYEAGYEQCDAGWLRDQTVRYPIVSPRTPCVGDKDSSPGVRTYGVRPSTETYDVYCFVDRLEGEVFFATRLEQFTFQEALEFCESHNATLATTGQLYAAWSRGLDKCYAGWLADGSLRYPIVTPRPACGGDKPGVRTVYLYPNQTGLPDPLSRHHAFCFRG
# T4 sequence (Q28343 20-693): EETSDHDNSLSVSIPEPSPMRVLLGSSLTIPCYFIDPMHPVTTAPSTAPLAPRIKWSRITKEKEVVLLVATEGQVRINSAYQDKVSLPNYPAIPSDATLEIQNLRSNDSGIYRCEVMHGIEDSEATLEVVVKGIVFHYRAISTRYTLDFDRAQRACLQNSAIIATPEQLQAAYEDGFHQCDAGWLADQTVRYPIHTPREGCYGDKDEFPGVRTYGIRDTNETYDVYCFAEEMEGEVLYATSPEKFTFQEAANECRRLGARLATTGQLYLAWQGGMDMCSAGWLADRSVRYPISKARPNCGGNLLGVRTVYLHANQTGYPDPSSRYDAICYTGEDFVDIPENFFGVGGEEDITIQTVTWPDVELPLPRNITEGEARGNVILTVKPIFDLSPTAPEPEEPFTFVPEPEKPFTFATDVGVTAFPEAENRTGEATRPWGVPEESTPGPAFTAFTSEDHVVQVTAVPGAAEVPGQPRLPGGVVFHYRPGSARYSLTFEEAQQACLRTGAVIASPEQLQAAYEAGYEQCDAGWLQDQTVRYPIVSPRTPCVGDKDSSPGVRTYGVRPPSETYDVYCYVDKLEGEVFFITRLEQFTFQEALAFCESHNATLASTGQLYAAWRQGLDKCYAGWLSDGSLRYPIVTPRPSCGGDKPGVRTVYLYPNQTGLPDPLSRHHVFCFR
# T5 sequence (P13608 20-685 limits assumed): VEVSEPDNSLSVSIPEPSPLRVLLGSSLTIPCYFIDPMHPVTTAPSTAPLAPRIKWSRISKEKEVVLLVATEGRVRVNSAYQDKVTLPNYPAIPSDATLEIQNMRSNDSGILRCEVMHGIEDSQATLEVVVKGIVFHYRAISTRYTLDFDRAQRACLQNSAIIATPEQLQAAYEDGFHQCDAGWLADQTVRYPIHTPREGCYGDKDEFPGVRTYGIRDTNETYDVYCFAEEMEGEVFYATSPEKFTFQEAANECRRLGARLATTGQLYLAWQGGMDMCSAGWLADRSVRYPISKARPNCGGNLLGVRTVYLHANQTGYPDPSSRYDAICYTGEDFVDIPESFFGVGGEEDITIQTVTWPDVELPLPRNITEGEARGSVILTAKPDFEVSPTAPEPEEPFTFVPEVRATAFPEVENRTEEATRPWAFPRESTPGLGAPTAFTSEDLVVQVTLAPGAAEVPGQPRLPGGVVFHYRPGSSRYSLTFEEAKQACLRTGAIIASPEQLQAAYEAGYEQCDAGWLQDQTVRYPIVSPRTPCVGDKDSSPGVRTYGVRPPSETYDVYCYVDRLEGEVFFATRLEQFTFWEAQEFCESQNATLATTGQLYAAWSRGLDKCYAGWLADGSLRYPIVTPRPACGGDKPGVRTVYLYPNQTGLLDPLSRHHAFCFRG
# Sequence of Rat G1-IGD-G2 (P07897 20-684 limits assumed): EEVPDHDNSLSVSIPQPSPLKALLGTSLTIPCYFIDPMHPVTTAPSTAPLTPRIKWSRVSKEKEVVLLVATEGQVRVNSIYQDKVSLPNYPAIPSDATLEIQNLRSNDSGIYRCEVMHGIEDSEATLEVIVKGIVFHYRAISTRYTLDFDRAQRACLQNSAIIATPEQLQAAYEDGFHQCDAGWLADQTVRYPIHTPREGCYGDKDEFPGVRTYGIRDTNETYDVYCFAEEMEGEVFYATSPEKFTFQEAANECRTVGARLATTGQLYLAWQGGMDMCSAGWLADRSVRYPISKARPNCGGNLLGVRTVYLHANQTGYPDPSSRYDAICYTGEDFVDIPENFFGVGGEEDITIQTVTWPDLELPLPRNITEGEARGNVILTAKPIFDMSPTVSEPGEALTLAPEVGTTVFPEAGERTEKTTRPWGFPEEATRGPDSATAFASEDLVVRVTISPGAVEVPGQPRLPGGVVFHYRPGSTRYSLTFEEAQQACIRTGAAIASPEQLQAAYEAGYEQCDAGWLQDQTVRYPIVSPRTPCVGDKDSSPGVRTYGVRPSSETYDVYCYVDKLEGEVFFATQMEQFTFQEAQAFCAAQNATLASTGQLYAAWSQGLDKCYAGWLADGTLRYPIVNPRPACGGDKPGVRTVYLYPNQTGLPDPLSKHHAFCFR
molecule,measurement,setting,value
TIMP3: natural inhibitor of MMP1 and MMP14 (protein) CTCSPSHPQDAFCNSDIVIRAKVVGKKLVKEGPFGTLVYTIKQMKMYRGFTKMPHVQYIHTEASESLCGLKLEVNKYQYLLTGRVYDGKMYTGLCNFVERWDQLTLSQRKGLNYRYHLGCNCKIKSCYYLPCFVTSKNECLWTDMLSNFGYPGYQSKHYACIRQKGGYCSWYRGWAPPDKSIINATDP,inhibition of MMP1 activity,human MMP1 [1],inhibited
same,inhibition of MMP14 activity,human MMP14 [2],inhibited
"ISVD 62C02: MMP13 specific immunoglobulin single variable domain (protein, Description of Artificial Sequence: Synthetic anti-MMP13 immunoglobulin single variable domain (ISVD)) VHH: EVQLVESGGGVVQPGGSLRLSCAASGFAFSAAYMSWVRQAPGKGLEWVSSISDDGSKTYYADSVKGRFTISRDNSKNTVYLQMNSLRPEDTALYYCNTGYGATTTRPGRYWGQGTLVTVSS",MMP1 inhibition,human MMP1 [3],no MMP1 or MMP14 inhibition
same,MMP14 inhibition,human MMP14 [4],no MMP1 or MMP14 inhibition
"ISVD 114F08: Aggrecan-specific immunoglobulin single variable domain (CAP), binds G1 domain (protein, Description of Artificial Sequence: Synthetic anti-Aggrecan immunoglobulin single variable domain (ISVD)) VHH: EVQLVESGGGVVQPGGSLRLSCAASGSTFIINVVRWYRRAPGKQRELVATISSGGNANYVDSVRGRFTISRDNSKNTVYLQMNSLRPEDTALYYCNVPTTHYGGVYYGPYWGQGTLVTVSS","Periplasmic extract ELISA OD 450 nm, Hu G1-IGD-G2",Hu G1-IGD-G2,2.38
same,"Periplasmic extract ELISA OD 450 nm, Cy G1-IGD-G2",Cy G1-IGD-G2,2.32
same,"Periplasmic extract ELISA OD 450 nm, Rat G1-IGD-G2",Rat G1-IGD-G2,2.05
same,"Periplasmic extract ELISA OD 450 nm, Dog G1-IGD-G2",Dog G1-IGD-G2,1.90
same,"Periplasmic extract ELISA OD 450 nm, Bov G1-IGD-G2",Bov G1-IGD-G2,1.18
